We go through 21 molecules from patent US12281162 (LANOVA MEDICINES DEVELOPMENT, dated 2025).

The chains are these.
B1: 58-H2L2 (antibody, V domains shown)
VH: QVQLVQSGAEVKKPGASVKVSCKASGYSFTGYYIHWVRQAPGQGLEWIGYISSYNAATSFNQKFKGRVTFTVDTSTSTVYMELSSLRSEDTAVYYCARTELRGPWFAYWGQGTLVTVSS
VL: DTQMTQSPSSLSASVGDRVTITCSASSSVSYMNWYQQKPGKAPKRLIYDTSKLASGVPSRFSGSGSGTDYTLTISSLQPEDFATYYCQQWSNNPLTFGQGTKLEIK
notes: humanized 58F9G10, VH v2 x VL v2
B2: 58-H2L3 (antibody, V domains shown)
VH: B1 VH
VL: B1 VL with M4L, I21M, L77M
notes: humanized 58F9G10, VH v2 x VL v3
B3: 58-H3L2 (antibody, V domains shown)
VH: B1 VH with R38K, L83F
VL: B1 VL
notes: humanized 58F9G10, VH v3 x VL v2
B4: 58-H2L1 (antibody, V domains shown)
VH: B1 VH
VL: B1 VL with T2I, R45L, Y70F
notes: humanized 58F9G10, VH v2 x VL v1
B5: 58-H1L2 (antibody, V domains shown)
VH: B1 VH with I48M, F70M, V72R
VL: B1 VL
notes: humanized 58F9G10, VH v1 x VL v2
B6: 58-H1L3 (antibody, V domains shown)
VH: B1 VH with I48M, F70M, V72R
VL: B1 VL with M4L, I21M, L77M
notes: humanized 58F9G10, VH v1 x VL v3
B7: 58-H3L3 (antibody, V domains shown)
VH: B1 VH with R38K, L83F
VL: B1 VL with M4L, I21M, L77M
notes: humanized 58F9G10, VH v3 x VL v3
B8: 2D3C12 (antibody, V domains shown)
VH: QVQLQQSGAELVRPGTSVKVSCKASGYAFINYLIEWIKQRPGQGLEWIGMINPGSGGTNYNEKFKDKATLTADKSSSTAYMQLSSLTSDDSAVYFCARNWDVWGQGTTLTVSS
VL: DVVMTQSPLSLPVSLGDQASVSCRSSQSLVHSTGNTYLHWYLQKPGQSPKLLIYKVSNRFSGVPDRFSGSGSGTDFTLKISRVEAEDLGVYFCSQSTHVPWTFGGGTKLEIK
notes: murine antibody from hybridoma supernatant
B9: 21C3C11B3 (antibody, V domains shown)
VH: B8 VH
VL: B8 VL
notes: as for B8
B10: 34D4A10 (antibody, V domains shown)
VH: B8 VH with N31S
VL: B8 VL
notes: as for B8
B11: 6G10D9 (antibody, V domains shown)
VH: QVQLQQSGAELARPGASVKMSCKASGYTFTTYTMHWVKQRPGQGLEWLGYINPSSGYTNYNQKFKDKATLTAGKSSSTAYMQLSSLTSEDSAVYYCASLRSRGYFDYWGQGTTLTVSS
VL: DIVMTQSQTFMSTSVGDRVRITCKASQNVGTAVVWYQQKTGQSPRLLIYSASNRYTGVPDRFTGSGSGTDFTLTISNMQSEDLADFFCQQYSSYPYTFGGGTKLEIK
notes: as for B8
B12: 38A10E9A11 (antibody, V domains shown)
VH: B11 VH with L48I, Q110R
VL: B11 VL with T9K, M11L, R20S, V34A, T40P, R45K, D85G, F86Y
notes: as for B8
B13: 40A5B2 (antibody, V domains shown)
VH: EVQLQQSGPELVKPGASVKMSCKASGYTFTRNIMHWVKQKPGQGLEWIGYINPYNAGSKYNEKFKGKATLTSDISSSTAYMELSSLTSEDSAVYYCAREEVYYRYGAWFAYWGHGTLVTVSA
VL: DIVLTQSPASLAVSLGQRATISCRASQSVSTSSYSYMHWYQQKPGQPPKLLIKYASNLESGVPARFSGSGSGTDFTLNIHPVEEEDTATYYCQHSWEIPRTFGGGTKLEIK
notes: as for B8
B14: 58F9G10 (antibody, V domains shown)
VH: EVQLQQSGPELVKTGASVKISCKASGYSFTGYYIHWVKQSHGKSLEWIGYISCYNGATSFNQKFKGKATFTVDTSSSTAYMQFNSLTSEDSAVYYCARTELRGPWFAYWGQGTLVTVSA
VL: QTVLTQSPAIMSASPGEKVTMTCSASSSVSYMNWYQQKSGTSPKRWIYDTSKLASGVPARFSGSGSGTSYSLTISSMEAEDAATYYCQQWSNNPLTFGAGTKLELK
notes: as for B8
B15: 14C2A11C6 (antibody, V domains shown)
VH: QVHLQQSGAELARPGASVKMSCKASGYTFTTYTMHWVKQRPGQGLEWIGYINPNSAYTNYNQKFKDKATLTADKSSSTAYMQLSSLTSEDSAVYYCARRVLLLRVLDFFDYWGQGTTLTVSS
VL: DVQITQSPSYLAASPGETITINCRASKSINKYLTWYQEKPGKTNKLLIYSGSTLQSGIPSRFSGSGSGSDFTLTISSLEPEDFAMYYCQQHNEYPLTFGTGTKLELK
notes: murine antibody from hybridoma supernatant; also called 14C2A1106
B16: 34D3H1 (antibody, V domains shown)
VH: EVHLVESGGDLVKPGGSLKLSCAASGFTFSSYGMSWVRQTPDKRLEWVATISSGGSYTYYPDSVKGRFTISRDNAKNTLNLQMSSLKSEDTAMYYCARQGGDAMDYWGQGTSVTVSS
VL: DIVLTQSPATLSVTPGDSVSLSCRASQSINNNLHWYQQKSHESPRLLIKYASQSISGIPSRFSGSGSGTDFTLSINSVETEDFGMYFCQQSNSRLTFGAGTKLELK
notes: as for B8
B17: 29B2C10 (antibody, V domains shown)
VH: EVQLQQSGPELVKPGASMKLSCKASGYSFTGYTMHWVKQSHGENLEWIGLINPYNGGTNYNQKFKGKATLTVDKSSSTAYMELLSLTSEDSAVYYCSRWGLRRAMDYWGQGTSVTVSS
VL: DIVMTQSQKFMSTSVGDRVSVTCKASQNVGSNVAWYQQKPGQSPKALIYSASYRYSGVPDRFTGNGSGTDFTLTISNVQSEDLAEYFCQQYYNSPWTFGGGTKLEIK
notes: as for B8
B18: 29A7H11H4C12 (antibody, V domains shown)
VH: B17 VH with L20I
VL: B17 VL with V15I
notes: as for B8
B19: 14F3H2 (antibody, V domains shown)
VH: B17 VH with L20I, H35N, E43K, T58I, N59R, S97A
VL: B17 VL with S31T, N65S, Y92N, N93S
notes: as for B8
B20: 26E1D12 (antibody, V domains shown)
VH: B17 VH with L20I, H35N, E43K, T71A, E82D
VL: B17 VL with N65S, Y92N
notes: as for B8
B21: 37B9C4 (antibody, V domains shown)
VH: EVNLEESGGGLVQPGGSMKLSCVASGFTFSDYWMNWVRQSPEKGLEWVAEIRLKSNNYATHYAESVKGRFTISRDDSKSSVYLQMNNLRAEDTGIYYCTRPLLWFRRYYAMDYWGQGTSVTVSS
VL: DIQMTQTTSSLSASLGDRITISCSASQGISNYLNWYQQKPDGTVKLLIYYTSSLHSGVPSRFSGSGSGTDYSLTISNLEPADIATYYCQQYSKLPFTFGSGTKLEIK
notes: as for B8

Residue numbers refer to the chain shown, from its start.

T1 sequence (Q9NZD1 whole entry): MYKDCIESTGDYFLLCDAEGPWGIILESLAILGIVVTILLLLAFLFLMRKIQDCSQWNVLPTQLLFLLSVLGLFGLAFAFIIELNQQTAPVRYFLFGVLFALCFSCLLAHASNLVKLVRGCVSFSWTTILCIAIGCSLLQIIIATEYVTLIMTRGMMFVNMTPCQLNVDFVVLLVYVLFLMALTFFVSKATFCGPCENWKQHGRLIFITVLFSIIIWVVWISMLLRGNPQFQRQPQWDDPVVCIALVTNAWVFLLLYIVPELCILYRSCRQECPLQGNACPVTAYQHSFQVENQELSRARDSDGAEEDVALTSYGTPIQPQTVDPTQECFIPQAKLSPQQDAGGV

The first assay addresses T1, human G-protein-coupled receptor family C group 5 member D (GPRC5D) (human, UniProt Q9NZD1 1-345).
T1 construct: whole, on cells; also called human GPRC5D protein
Kind of assay: FACS, CHO-K1/GPRC5D. For orientation: In flow cytometry, cells or beads pass a laser one at a time.
B1 showed a Bottom of 4840, a LogEC50 of 0.345, a Span of 103000 and a Top of 108000.
B2 returned a Bottom of 1230, a LogEC50 of 0.27, a Span of 90500 and a Top of 91700.
In the case of B3, the Bottom is 5980, the LogEC50 stood at 0.374, the Span is 99500 and the Top stood at 105000.
Turning to B4, the Bottom was 3620, the LogEC50 stood at 0.378, the Span was 106000 and the Top came to 110000.
B5 returned a Bottom of 5500, a LogEC50 of 0.263, a Span of 109000 and a Top of 114000.
As to B6, the Bottom was determined as 4230, the LogEC50 was 0.231, the Span turned out to be 101000 and the Top came to 105000.
Consider B7, for which the Bottom worked out at 4020, the LogEC50 came to 0.318, the Span is 93700 and the Top was 97700.

A further assay addresses T1, human G-protein-coupled receptor family …. Description: FACS, CHO-K1/human GPRC5D, hybridoma supernatant. How it is done: Antibodies harvested from the supernatants of the hybridomas were tested for their binding to the human GPRC5D protein expressed on CHO K1 cells was tested. CHO—K1 cells stably expressed human GPRC5D, were harvested from flasks. 100 µl of 1×10^6 cells/ml of cells were incubated with murine antibodies in 3-fold serial dilutions for 30 minutes on ice. After being washed with 200 µl of FACS buffer twice, cells were incubated with secondary antibody for 30 minutes on ice. Cells were washed with 200 µl of FACS buffer twice and transferred to BD Falcon 5 ml tube and analyzed by FACS.
For the molecule B8, the Bottom came to 46100, the LogEC50 stood at 0.454, the Span was 789000 and the Top was 835000.
In the case of B9, the Bottom was determined as 57000, the LogEC50 came out at 0.654, the Span was 1.45e+06 and the Top was 1.51e+06.
B10: the Bottom amounted to 2740, the LogEC50 turned out to be 1.02, the Span was 919000 and the Top worked out at 922000.
Take B11: the Bottom was found to be 6870, the LogEC50 was determined as 0.912, the Span is 1.42e+06 and the Top was 1.43e+06.
B12 registered a Bottom of 24000, a LogEC50 of 0.947, a Span of 1.76e+06 and a Top of 1.79e+06.
The like results for B13 were, in that order, 25400, 0.511, 1.17e+06 and 1.2e+06.
B14: the Bottom was -14700, the LogEC50 came to 0.964, the Span was found to be 2.07e+06 and the Top was 2.05e+06.
Regarding B15, the Bottom came to 5570, the LogEC50 came out at 0.993, the Span amounted to 723000 and the Top was 729000.
On to B16, for which the Bottom is -13300, the LogEC50 came out at 0.884, the Span was determined as 1.43e+06 and the Top was 1.41e+06.
The corresponding values for B17 are 68600, 0.62, 1.54e+06 and 1.61e+06.
As for B18, the Bottom is 43400, the LogEC50 turned out to be 0.738, the Span was found to be 1.42e+06 and the Top was 1.46e+06.
B19 gave a Bottom of 20400, a LogEC50 of 0.874, a Span of 852000 and a Top of 873000.
As for B20, the Bottom came to 52700, the LogEC50 turned out to be 0.225, the Span turned out to be 625000 and the Top is 678000.
The corresponding values for B21 are 10900, 0.592, 1.75e+06 and 1.76e+06.
